The record followed here is paper PMC10080687, “Tautomer-Specific Deacylation and Ω-Loop Flexibility Explain the Carbapenem-Hydrolyzing Broad-Spectrum Activity of the KPC-2 β-Lactamase” (Journal of the American Chemical Society, 2023).

By Km is commonly meant the substrate concentration at which the rate is half of its maximum. For orientation: kcat means the maximal rate divided by the concentration of active sites. By kcat/Km is commonly meant the second-order rate constant that governs catalysis at low substrate concentration.

Common to all, as to experiment: purified protein
Details in all cases: acylates Ser70

The test system of series [1] is C[C@@H](O)[C@H]1C(=O)N2C(C(=O)O)=C(S[C@@H]3CN[C@H](C(=O)Nc4cccc(C(=O)O)c4)C3)[C@H](C)[C@H]12. The series is classed as biochemical, Klebsiella pneumoniae.
For series [2], the system named is C[C@@H](O)[C@H]1C(=O)N2C(C(=O)O)=C(S[C@@H]3CN[C@H](C(=O)N(C)C)C3)[C@H](C)[C@H]12. The series is classed as biochemical, Klebsiella pneumoniae.
Series [3] deals with C[C@@H](O)[C@H]1C(=O)N2C(C(=O)O)=C(SCCN=CN)C[C@H]12.
For series [4], the system named is CC(=O)OCC1=C(C(=O)O)N2C(=O)[C@@H](NC(=O)Cc3cccs3)[C@H]2SC1.

With KPC-2 (Klebsiella pneumoniae), the Michaelis constant (Km) in series [1] came to 8.6 µM; in series [2], 7.1 µM; in series [3], 72 µM; in series [4], 42 µM. In addition, the kcat in series [1] was 8 s⁻¹; in series [2], 21 s⁻¹; in series [3], 22 s⁻¹; in series [4] it was 110 s⁻¹. In addition, the kcat/Km was 920000 M⁻¹ s⁻¹ in series [1], 3e+06 M⁻¹ s⁻¹ in series [2] and 310000 M⁻¹ s⁻¹ in series [3].
